One molecule from US20230295308A1, “ANTAGONISTIC BIPARATOPIC ANTIBODIES THAT SPECIFICALLY BIND FIBROBLAST GROWTH FACTOR RECEPTOR 2 AND METHODS OF USING SAME” (The Broad Institute, Inc., priority 2020, published 2023) can be followed below.

The Kd is a measure of binding affinity in units of concentration. Higher therefore signals a looser complex.

The target in one assay is FGFR2b alpha IIIb (Homo sapiens, UniProt P21802). As to the kind of experiment: Surface Plasmon Resonance (SPR) binding. Conditions: FGFR2b alpha IIIb antigen. An excerpt:
FIGS. 17A-17C provide a schematic and tabular data related to assessments made to compare the avidity of biparatopic antibodies to that of their parental (bivalent monospecific) antibodies.
Surface Plasmon Resonance (SPR) as known in the art was used to determine the binding affinities of biparatopic antibodies. The SPR-based binding method involves immobilization of a ligand (antibody) on the surface of a sensor chip. The binding partner of interest or an analyte (FGFR2 ECD) flow through the flow channel. Different concentrations of an analyte flow over the ligand, and the interactions of ligand-analyte can be characterized. The SPR signal originates from changes in the refractive index of the […] at the surface of the sensor chip. The increase in mass associated with a binding event causes a proportional increase in the refractive index, which is observed as a change in response-resonance signal. In brief, for the experiments using the antibodies described herein, the SPR assay was carried out by immobilizing antibodies (used as […]) at a concentration ranging from 1-1000 nM and flow-through FGFR2b alpha IIIb antigen (used as […]). The antibody kinetic data for the interaction with FGFR2b alpha IIb antigen were fitted to the 2-state and 1-1 binding models using Biocore software. The mean and standard deviation KD values are derived from at least three independent runs.
Using SPR, the kinetics of 6 monospecific and 13 biparatopic antibodies for binding to a single antigen, FGFR2b alpha IIb, was measured so as to compare avidity of the biparatopic antibodies to their parental antibodies. Without wishing to be bound by theory, it was expected that the biparatopic antibodies would bind to the FGFR2 antigen more tightly than their parental antibodies and that the tighter binding biparatopic antibodies among the antibodies that were assessed would be more efficient in blocking FGFR2 dimerization (FIG. 17A), thereby leading to inhibition or blocking of constitutive FGFR2 signaling and/or oncogenic transformation. […]

In assay [1] the target is T1, FGFR2 receptor dimerization (Homo sapiens, UniProt P21802).
T1 construct: expressed in transfected cells
T1 sequence (P21802 22-822 isoform P21802-3 limits assumed): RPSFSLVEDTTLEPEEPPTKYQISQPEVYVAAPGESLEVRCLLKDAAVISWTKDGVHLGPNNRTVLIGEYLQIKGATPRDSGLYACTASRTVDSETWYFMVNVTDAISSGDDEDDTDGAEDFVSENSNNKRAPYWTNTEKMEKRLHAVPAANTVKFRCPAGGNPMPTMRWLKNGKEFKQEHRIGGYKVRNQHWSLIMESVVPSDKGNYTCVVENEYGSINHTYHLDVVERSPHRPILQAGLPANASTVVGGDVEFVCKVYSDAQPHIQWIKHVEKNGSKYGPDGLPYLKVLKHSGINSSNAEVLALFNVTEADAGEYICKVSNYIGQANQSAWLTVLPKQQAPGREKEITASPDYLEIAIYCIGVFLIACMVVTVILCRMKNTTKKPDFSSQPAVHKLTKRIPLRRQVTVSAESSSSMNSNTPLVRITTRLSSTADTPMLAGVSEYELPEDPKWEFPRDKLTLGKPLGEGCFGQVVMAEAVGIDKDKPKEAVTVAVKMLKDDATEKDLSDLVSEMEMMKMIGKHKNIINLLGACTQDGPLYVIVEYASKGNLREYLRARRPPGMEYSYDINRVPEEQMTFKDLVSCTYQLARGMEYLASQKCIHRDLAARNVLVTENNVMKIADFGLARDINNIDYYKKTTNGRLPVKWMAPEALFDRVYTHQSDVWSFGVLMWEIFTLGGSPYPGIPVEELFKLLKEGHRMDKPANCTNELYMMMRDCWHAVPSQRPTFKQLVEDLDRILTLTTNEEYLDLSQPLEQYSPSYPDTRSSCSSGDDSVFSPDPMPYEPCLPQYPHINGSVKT
T1 sequence (P21802 22-822 isoform P21802-3 limits assumed): as above
As to the kind of experiment: NANOBIT assay of FGFR2 dimerization. It is filed as cell-based. Conditions: increasing antibody concentrations, cells stably expressing FGFR2. An excerpt: FIG. 16A-16F provide schematic illustrations, blots and graphs related to the development of a NANOBIT® assay to measure FGFR2 dimerization. Such an assay is used to screen biparatopic screening for their ability to disrupt FGFR2 dimerization. […] The protein interactions bring the subunits into close proximity to form a functional enzyme that generates a bright, luminescent signal. (FIG. 16B). […] FIG. 16E presents a graph of the results of the NANOBIT® assay using NANOBIT® constructs with or without FGF10 ligand. […] As shown in the graph on the left side of FIG. 16F, certain of the antibodies A-F inhibited the growth of BaF3 cells stably overexpressing FGFR2 (FGFR2IIIb). Antibody D was used in the NANOBIT® assay (graph on the right of FIG. 16F). In the rightmost graph in FIG. 16F, the fold luminescence resulting from FGFR2 WT (wild type) in the assay is represented by the left bar in each set of three bars; the fold luminescence resulting from FGFR2+FGF10 ligand in the assay is represented by the middle bar in each set of three bars; and the fold luminescence resulting from +/−FGF10 ligand difference in the assay is represented by the right bar in each set of three bars shown in FIG. 16F.
A NANOBIT® assay was developed to measure FGFR2 dimerization in cells, and in particular to screen for biparatopic antibodies that were able to disrupt FGFR2 dimerization. […]

Chain of FGFR2b alpha IIIb (P21802 22-378 isoform P21802-3): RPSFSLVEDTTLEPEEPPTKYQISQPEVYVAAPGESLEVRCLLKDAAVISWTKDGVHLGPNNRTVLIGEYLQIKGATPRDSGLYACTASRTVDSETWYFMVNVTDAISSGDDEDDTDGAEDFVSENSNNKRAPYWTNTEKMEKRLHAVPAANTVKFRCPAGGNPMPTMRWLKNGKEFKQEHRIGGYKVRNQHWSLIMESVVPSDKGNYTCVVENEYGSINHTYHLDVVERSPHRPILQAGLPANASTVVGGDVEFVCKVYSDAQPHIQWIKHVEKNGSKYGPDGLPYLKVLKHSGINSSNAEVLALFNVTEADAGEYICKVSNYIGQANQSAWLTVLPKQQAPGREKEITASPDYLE

B1: 2B 1.3.12 (antibody, V domains shown)
VH: EVQLVESGGGLVQPGGSLRLSCAASGFPFTSTGISWVRQAPGKGLEWVGRTHLGDGSTNYADSVKGRFTISADTSKNTAYLQMNSLRAEDTAVYYCARTYGIYDTYDMYTEYVMDYWGQGTLVTVSS
VL: DIQMTQSPSSLSASVGDRVTITCRASQDVDTSLAWYKQKPGKAPKLLIYSASFLYSGVPSRFSGSGSGTDFTLTISSLQPEDFATYYCQQSTGHPQTFGQGTKVEIK
notes: the duobody scheme implies IgG1 with K409R or F405L; also called Antibody D; GE
B1 returned an equilibrium dissociation constant (Kd) in the assay with FGFR2b alpha IIIb of 990 pM. For the same molecule, the “blocking of FGF-induced dimerization of the FGFR2 receptor” value in assay [1] is on record as “blocks”.
